Reference: US20190315854A1 (BEIJING VDJBIO, published 2019)
Read-outs that look alike come from different tables or passages of the source.

T1: sIL-6R (soluble IL-6 receptor; SBH Sciences) (human, UniProt P08887 20-365)
T1 construct: also called human IL-6R
T1 sequence: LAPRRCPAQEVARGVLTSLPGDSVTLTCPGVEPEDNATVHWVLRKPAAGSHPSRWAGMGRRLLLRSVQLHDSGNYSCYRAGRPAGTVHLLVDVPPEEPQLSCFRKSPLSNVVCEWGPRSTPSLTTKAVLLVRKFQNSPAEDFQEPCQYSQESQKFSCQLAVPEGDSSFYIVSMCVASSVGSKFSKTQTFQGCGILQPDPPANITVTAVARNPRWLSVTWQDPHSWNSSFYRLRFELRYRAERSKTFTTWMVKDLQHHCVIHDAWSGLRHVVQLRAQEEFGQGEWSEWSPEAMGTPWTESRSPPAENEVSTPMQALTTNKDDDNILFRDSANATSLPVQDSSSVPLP


Columns and labels:
Test in all cases: SPR (BIAcore 3000), antibody on chip, sIL-6R analyte, 25 C
[1] = target: T1, sIL-6R (soluble IL-6 receptor; SBH …)
Procedure: (§1) All SPR measurements were performed on a BIAcore 3000 instrument (GE Biosciences, Piscataway, N.J.). BIAcore Software-BIAcore 3000 Control Software V3.2 was used for the operation and control of the BIAcore 3000 instrument. BiaEvaluation Software V4.1 was used for the analysis of SPR data from the BIAcore 3000 instrument and data was plotted using Graph Pad Prism Software Version 5. […] The indicated antibodies were used as the ligand for the construction of the reference channel of the chip. […] Each sample was injected for 3 min at a flow rate of 30 μL/min to allow for binding to chip-bound antibody. Next, binding buffer without analyte was sent over the chip at the same flow rate to allow for dissociation of bound analyte. After 500s, remaining bound analyte was removed by injecting regeneration solution (1M Formic acid). Data was analyzed by using the Kinetics Wizard and the manual fitting programs that are both included with the BiaEvaluation Software V4.1.

[2] = target: T1, sIL-6R (soluble IL-6 receptor; SBH …); remark: listed apart in the source
Procedure: as §1

[3] = target: T1, sIL-6R (soluble IL-6 receptor; SBH …); remark: listed apart in the source
Procedure: as §1

| Binder | Kd [1] [nM] | Relative Affinity [1] | koff [1] [s⁻¹] | kon [1] [M⁻¹ s⁻¹] | Kd [2] [nM] | Relative Affinity [2] | koff [2] [s⁻¹] | kon [2] [M⁻¹ s⁻¹] | Kd [3] [nM] | Relative Affinity [3] | koff [3] [s⁻¹] | kon [3] [M⁻¹ s⁻¹] |
| --- | --- | --- | --- | --- | --- | --- | --- | --- | --- | --- | --- | --- |
| 3# (antibody, human IgG1, kappa, V domains shown, also called Sample # 3) VH: QVQLQESGPGLVRPSQTLSLTCTVSGYSITSDHAWSWVRQPPGRGLEWIGYISYSGITTYNPSLKSRVTMLRDTSKNQFSLRLSSVTAADTAVYYCARSLARATAMDYWGQGSLVTVSS VL: DIQMTQSPSSLSASVGDRVTITCRASQDISSYLNWYQQKPGKAPKLLIYYTSRLHSGVPSRFSGSGSGTDFTFTISSLQPEDIATYYCQQGNTLPYTFGQGTKVEIKR | 0.273 | 4.9 fold vs 25 (Tocilizumab) | 5.8e-05 | 213000 | 0.435 | 3.9 fold vs 25 (Tocilizumab) | 8.87e-05 | 204000 | – | – | – | – |
| 5# (antibody, human IgG1, kappa, V domains shown, also called Sample # 5) VH: QVQLQESGPGLVRPSQTLSLTCTVSGYSITSDHAWSWVRQPPGRGLEWIGFISYSGITTYNPSLKSRVTMLRDTSKNQFSLRLSSVTAADTAVYYCARSLARTTAMDYWGQGSLVTVSS VL: DIQMTQSPSSLSASVGDRVTITCRASQDISSYLNWYQQKPGKAPKLLIYYTSRLHSGVPSRFSGSGSGTDFTFTISSLQPEDIATYYCQQGNTLPYTFGQGTKVEIKR | 0.882 | 1.5 fold vs 25 (Tocilizumab) | 0.000234 | 266000 | – | – | – | – | – | – | – | – |
| 7# (antibody, human IgG1, kappa, V domains shown, also called Sample # 7) VH: QVQLQESGPGLVRPSQTLSLTCTVSGYSITSDHAWSWVRQPPGRGLEWIGYISYSGITTYNPSLKSRVTMLRDTSKNQFSLRLSSVTAADTAVYYCARSLARTTAIDYWGQGSLVTVSS VL: DIQMTQSPSSLSASVGDRVTITCRASQDISSYLNWYQQKPGKAPKLLIYYTSRLHSGVPSRFSGSGSGTDFTFTISSLQPEDIATYYCQQGNTLPYTFGQGTKVEIKR | 0.763 | 1.8 fold vs 25 (Tocilizumab) | 0.000177 | 232000 | – | – | – | – | – | – | – | – |
| 8# (antibody, human IgG1, kappa, V domains shown, also called Sample # 8) VH: QVQLQESGPGLVRPSQTLSLTCTVSGYSITSDHAWSWVRQPPGRGLEWIGFISYSGITTYNPSLKSRVTMLRDTSKNQFSLRLSSVTAADTAVYYCARSLARTTAMDFWGQGSLVTVSS VL: DIQMTQSPSSLSASVGDRVTITCRASQDISSYLNWYQQKPGKAPKLLIYYTSRLHSGVPSRFSGSGSGTDFTFTISSLQPEDIATYYCQQGNTLPYTFGQGTKVEIKR | 0.893 | 1.5 fold vs 25 (Tocilizumab) | 0.000241 | 270000 | – | – | – | – | – | – | – | – |
| 9# (antibody, human IgG1, kappa, V domains shown, also called Sample # 9) VH: QVQLQESGPGLVRPSQTLSLTCTVSGYSITSDHAWSWVRQPPGRGLEWIGYISYSGIITYNASLKSRVTMLRDTSKNQFSLRLSSVTAADTAVYYCARCLARTTAMDYWGQGSLVTVSS VL: DIQMTQSPSSLSASVGDRVTITCRASQDISSYLNWYQQKPGKAPKLLIYYTSRLHSGVPSRFSGSGSGTDFTFTISSLQPEDIATYYCQQGNTLPYTFGQGTKVEIKR | 0.249 | 5.4 fold vs 25 (Tocilizumab) | 5.94e-05 | 239000 | 0.32 | 5.3 fold vs 25 (Tocilizumab) | 6.28e-05 | 196000 | – | – | – | – |
| 11# (antibody, human IgG1, kappa, V domains shown, also called Sample # 11) VH: QVQLQESGPGLVRPSQTLSLTCTVSGYSITSDHAWSWVRQPPGRGLEWIGFISYSGITTYNPSLKSRVTMLRDTSKNQFSLRLSSVTAADTAVYYCARSLARATAMDYWGQGSLVTVSS VL: DIQMTQSPSSLSASVGDRVTITCRASQDISSYLNWYQQKPGKAPKLLIYYTSRLHSGVPSRFSGSGSGTDFTFTISSLQPEDIATYYCQQGNTLPYTFGQGTKVEIKR | 0.0863 | 15.5 fold vs 25 (Tocilizumab) | 2.38e-05 | 275000 | 0.112 | 15.3 fold vs 25 (Tocilizumab) | 3.08e-05 | 276000 | – | – | – | – |
| 12# (antibody, human IgG1, kappa, V domains shown, also called Sample # 12) VH: QVQLQESGPGLVRPSQTLSLTCTVSGYSITSDHAWSWVRQPPGRGLEWIGFISYSGITTYNPSLKSRVTMLRDTSKNQFSLRLSSVTAADTAVYYCARCLARATAMDYWGQGSLVTVSS VL: DIQMTQSPSSLSASVGDRVTITCRASQDISSYLNWYQQKPGKAPKLLIYYTSRLHSGVPSRFSGSGSGTDFTFTISSLQPEDIATYYCQQGNTLPYTFGQGTKVEIKR | 0.288 | 4.6 fold vs 25 (Tocilizumab) | 8.32e-05 | 289000 | 0.418 | 4.1 fold vs 25 (Tocilizumab) | 0.000126 | 302000 | – | – | – | – |
| 13# (antibody, human IgG1, kappa, V domains shown, also called Sample # 13) VH: QVQLQESGPGLVRPSQTLSLTCTVSGYSITSDHAWSWVRQPPGRGLEWIGFISYSGITTYNPSLKSRVTMLRDTSKNQFSLRLSSVTAADTAVYYCARCLARTTAMDYWGQGSLVTVSS VL: DIQMTQSPSSLSASVGDRVTITCRASQDISSYLNWYQQKPGKAPKLLIYYTSRLHSGVPSRFSGSGSGTDFTFTISSLQPEDIATYYCQQGNTLPYTFGQGTKVEIKR | 0.373 | 3.6 fold vs 25 (Tocilizumab) | 0.0001 | 269000 | – | – | – | – | – | – | – | – |
| 26# (antibody, human IgG1, kappa, V domains shown, also called Sample # 26) VH: QVQLQESGPGLVRPSQTLSLTCTVSGYSITSDHAWSWVRQPPGRGLEWIGYISYSGMTTYNPSLKSRVTMLRDTSKNQFSLRLSSVTAADTAVYYCARSLARTTAMDYWGQGSLVTVSS VL: DIQMTQSPSSLSASVGDRVTITCRASQDISSYLNWYQQKPGKAPKLLIYYTSRLHSGVPSRFSGSGSGTDFTFTISSLQPEDIATYYCQQGNTLPYTFGQGTKVEIKR | 0.42 | 3.2 fold vs 25 (Tocilizumab) | 0.000102 | 243000 | – | – | – | – | – | – | – | – |
| 35# (antibody, human IgG1, kappa, V domains shown, also called Sample # 35) VH: QVQLQESGPGLVRPSQTLSLTCTVSGYSITSDHAWSWVRQPPGRGLEWIGYISYSGITTYNPSLKSRVTMLRDTSKNQFSLRLSSVTAADTAVYYCARSLARMTAMDYWGQGSLVTVSS VL: DIQMTQSPSSLSASVGDRVTITCRASQDISSYLNWYQQKPGKAPKLLIYYTSRLHSGVPSRFSGSGSGTDFTFTISSLQPEDIATYYCQQGNTLPYTFGQGTKVEIKR | – | – | – | – | 0.648 | 2.6 fold vs 25 (Tocilizumab) | 0.000146 | 225000 | – | – | – | – |

Results, then the binder that gave them:

| Kd [1] [nM] | Relative Affinity [1] | koff [1] [s⁻¹] | kon [1] [M⁻¹ s⁻¹] | Kd [2] [nM] | Relative Affinity [2] | koff [2] [s⁻¹] | kon [2] [M⁻¹ s⁻¹] | Kd [3] [nM] | Relative Affinity [3] | koff [3] [s⁻¹] | kon [3] [M⁻¹ s⁻¹] | Binder |
| --- | --- | --- | --- | --- | --- | --- | --- | --- | --- | --- | --- | --- |
| – | – | – | – | 0.605 | 2.8 fold vs 25 (Tocilizumab) | 0.000106 | 175000 | – | – | – | – | 45# (antibody, human IgG1, kappa, V domains shown, also called Sample # 45) VH: QVQLQESGPGLVRPSQTLSLTCTVSGYSITSDHAWSWVRQPPGRGLEWIGYISYSGITTYNPSLKSRVTMLRDTSKNQFSLRLSSVTAADTAVYYCARTLARTTAMDYWGQGSLVTVSS VL: DIQMTQSPSSLSASVGDRVTITCRASQDISSYLNWYQQKPGKAPKLLIYYTSRLHSGVPSRFSGSGSGTDFTFTISSLQPEDIATYYCQQGNTLPYTFGQGTKVEIKR |
| – | – | – | – | – | – | – | – | 0.273 | 11.6 fold vs 25 (Tocilizumab) | 1.94e-05 | 71000 | 243# (antibody, human IgG1, kappa, V domains shown) VH: QVQLQESGPGLVRPSQTLSLTCTVSGYSITSDHAWSWVRQPPGRGLEWIGYISYSGMITYNPSLKSRVTMLRDTSKNQFSLRLSSVTAADTAVYYCARCLARTTAIDFWGQGSLVTVSS VL: DIQMTQSPSSLSASVGDRVTITCRASQDISSYLNWYQQKPGKAPKLLIYYTSRLHSGVPSRFSGSGSGTDFTFTISSLQPEDIATYYCGQGNRLPYTFGQGTKVEIKR |
| – | – | – | – | – | – | – | – | 0.166 | 19 fold vs 25 (Tocilizumab) | 2.33e-05 | 140000 | 244# (antibody, human IgG1, kappa, V domains shown) VH: QVQLQESGPGLVRPSQTLSLTCTVSGYSITSDHAWSWVRQPPGRGLEWIGYISYSGITTYNPSLKSRVTMLRDTSKNQFSLRLSSVTAADTAVYYCARTLARMTAIDFWGQGSLVTVSS VL: DIQMTQSPSSLSASVGDRVTITCRASQDISSYLNWYQQKPGKAPKLLIYYTSRLHSGVPSRFSGSGSGTDFTFTISSLQPEDIATYYCGQGNRLPYTFGQGTKVEIKR |
| – | – | – | – | – | – | – | – | 0.25 | 12.6 fold vs 25 (Tocilizumab) | 3.53e-05 | 141000 | 245# (antibody, human IgG1, kappa, V domains shown) VH: QVQLQESGPGLVRPSQTLSLTCTVSGYSITSDHAWSWVRQPPGRGLEWIGYISYSGMITYNPSLKSRVTMLRDTSKNQFSLRLSSVTAADTAVYYCARTLARMTAMDYWGQGSLVTVSS VL: DIQMTQSPSSLSASVGDRVTITCRASQDISSYLNWYQQKPGKAPKLLIYYTSRLHSGVPSRFSGSGSGTDFTFTISSLQPEDIATYYCGQGNRLPYTFGQGTKVEIKR |
| – | – | – | – | – | – | – | – | 0.0789 | 40.1 fold vs 25 (Tocilizumab) | 9.86e-06 | 125000 | 246# (antibody, human IgG1, kappa, V domains shown) VH: QVQLQESGPGLVRPSQTLSLTCTVSGYSITSDHAWSWVRQPPGRGLEWIGYISYSGMITYNPSLKSRVTMLRDTSKNQFSLRLSSVTAADTAVYYCARTLARTTAIDFWGQGSLVTVSS VL: DIQMTQSPSSLSASVGDRVTITCRASQDISSYLNWYQQKPGKAPKLLIYYTSRLHSGVPSRFSGSGSGTDFTFTISSLQPEDIATYYCGQGNRLPYTFGQGTKVEIKR |
